# Source: patent US20020076693A1, “Novel cell surface receptor for HIV retroviruses, therapeutic and diagnostic uses” (priority 1997, published 2002)
# Where two headings read alike, the source gives them in different places.
# Experiments:
# [1] = biological target: purified preparation of the V3 loop-BPs (P95/nucleolin, P40/PHAP II, P30/PHAP I) (human) (UniProt P19338); experiment: BIAcore, V3-BPs; row shifted one column to the left
# [2] = biological target: purified preparation of the V3 loop-BPs (P95/nucleolin, P40/PHAP II, P30/PHAP I) (human) (UniProt P19338); experiment: inhibition of gp120 binding to the V3 loop-BPs; competitor gp120
# [3] = biological target: purified preparation of the V3 loop-BPs (P95/nucleolin, P40/PHAP II, P30/PHAP I) (human) (UniProt P19338); experiment: BIAcore, V3 loop-BPs immobilized on CM5
# P95/nucleolin (human) [4] = biological target: P95/nucleolin (human) (UniProt P19338); experiment: cell-based or functional assay
# P95/nucleolin (human) [5] = biological target: P95/nucleolin (human) (UniProt P19338); experiment: FACS on CEM cells with biotin-labeled construct; target printed as TASP-ligand
# P95/nucleolin (human) [6] = biological target: P95/nucleolin (human) (UniProt P19338); experiment: competition: 50 µM unlabeled 5[KPR]-TASP against 5 µM biotin-labeled 5[Kψ(CH2N)PR]-TASP on CEM cells
# P95/nucleolin (human) [7] = biological target: P95/nucleolin (human) (UniProt P19338); experiment: FACS on MOLT4 cells, no protease; target TASP-Ligand [sic]
# P95/nucleolin (human) [8] = biological target: P95/nucleolin (human) (UniProt P19338); experiment: FACS on MOLT4 cells after trypsin; target TASP-Ligand [sic]
# P40/PHAP II (human) = P40/PHAP II (human) (UniProt Q01105); experiment: saturation of the binding sites, method not stated
# P30/PHAP I (human) = P30/PHAP I (human) (UniProt P39687); experiment: saturation of the binding sites, method not stated
# P95/nucleolin (human) [9] = biological target: P95/nucleolin (human) (UniProt P19338); experiment: saturation of the binding sites, method not stated
# [10] = biological target: purified preparation of the V3 loop-BPs (P95/nucleolin, P40/PHAP II, P30/PHAP I) (human) (UniProt P19338); experiment: BIAcore, V3-BPs
# P95/nucleolin (human) [11] = biological target: P95/nucleolin (human) (UniProt P19338); experiment: FACS on MOLT4 cells after proteinase K; target TASP-Ligand [sic]
# P95/nucleolin (human) [12] = biological target: P95/nucleolin (human) (UniProt P19338); experiment: FACS on MOLT4 cells after pronase E; target TASP-Ligand [sic]
# [13] = biological target: CD4 (cellular, CEM and MOLT4 cells) (human) (UniProt P01730); experiment: FACS on MOLT4 cells after trypsin
# [14] = biological target: CD4 (cellular, CEM and MOLT4 cells) (human) (UniProt P01730); experiment: FACS on MOLT4 cells after proteinase K
# [15] = biological target: purified preparation of the V3 loop-BPs (P95/nucleolin, P40/PHAP II, P30/PHAP I) (human) (UniProt P19338)
# [16] = biological target: CD4 (cellular, CEM and MOLT4 cells) (human) (UniProt P01730); experiment: cell-based or functional assay
# [17] = biological target: CD4 (cellular, CEM and MOLT4 cells) (human) (UniProt P01730); experiment: FACS on MOLT4 cells, no protease
# [18] = biological target: CD4 (cellular, CEM and MOLT4 cells) (human) (UniProt P01730); experiment: FACS on MOLT4 cells after pronase E
# [19] = biological target: CD26 (on MOLT4 cells) (human) (UniProt P27487); experiment: FACS on MOLT4 cells after trypsin
# [20] = biological target: CD26 (on MOLT4 cells) (human) (UniProt P27487); experiment: FACS on MOLT4 cells after proteinase K
# [21] = biological target: CD26 (on MOLT4 cells) (human) (UniProt P27487); experiment: FACS on MOLT4 cells, no protease
# [22] = biological target: CD26 (on MOLT4 cells) (human) (UniProt P27487); experiment: FACS on MOLT4 cells after pronase E
# [23] = biological target: purified preparation of the V3 loop-BPs (P95/nucleolin, P40/PHAP II, P30/PHAP I) (human) (UniProt P19338); experiment: BIAcore, V3 loop-BPs
# [24] = biological target: recombinant gp120 of HIV-1 Lai (IIIB) (HIV-1 Lai (IIIB)) (UniProt P03377); experiment: cell-based or functional assay
# [25] = biological target: purified preparation of the V3 loop-BPs (P95/nucleolin, P40/PHAP II, P30/PHAP I) (human) (UniProt P19338); remark: listed apart in the source
# recombinant soluble CD4 = recombinant soluble CD4 (UniProt P01730); experiment: BIAcore, soluble CD4; row shifted one column to the left
# [26] = biological target: purified preparation of the V3 loop-BPs (P95/nucleolin, P40/PHAP II, P30/PHAP I) (human) (UniProt P19338); experiment: BIAcore, purified V3-BPs
# P95/nucleolin (human), sequence (P19338 2-710 limits assumed): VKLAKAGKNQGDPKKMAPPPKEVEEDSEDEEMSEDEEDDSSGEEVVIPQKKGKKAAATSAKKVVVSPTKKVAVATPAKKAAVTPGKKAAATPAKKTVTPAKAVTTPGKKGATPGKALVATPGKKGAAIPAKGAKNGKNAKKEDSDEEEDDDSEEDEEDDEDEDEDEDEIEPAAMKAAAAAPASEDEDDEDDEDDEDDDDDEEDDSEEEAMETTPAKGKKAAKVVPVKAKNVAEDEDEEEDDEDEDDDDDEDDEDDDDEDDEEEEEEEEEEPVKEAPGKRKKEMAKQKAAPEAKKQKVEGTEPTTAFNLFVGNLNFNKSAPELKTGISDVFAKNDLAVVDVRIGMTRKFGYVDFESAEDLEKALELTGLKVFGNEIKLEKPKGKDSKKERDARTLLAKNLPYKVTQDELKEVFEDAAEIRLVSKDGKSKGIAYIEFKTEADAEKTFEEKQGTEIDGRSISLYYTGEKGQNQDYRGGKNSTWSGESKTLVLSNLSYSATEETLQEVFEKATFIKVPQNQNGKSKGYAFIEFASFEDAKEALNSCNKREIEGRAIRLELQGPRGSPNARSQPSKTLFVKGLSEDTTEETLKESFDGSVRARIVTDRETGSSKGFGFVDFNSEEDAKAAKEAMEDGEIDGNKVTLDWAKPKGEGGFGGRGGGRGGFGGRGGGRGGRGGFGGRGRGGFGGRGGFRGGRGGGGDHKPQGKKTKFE
# P40/PHAP II (human), sequence (Q01105 other isoform, or with tags, fused parts or gaps limits assumed): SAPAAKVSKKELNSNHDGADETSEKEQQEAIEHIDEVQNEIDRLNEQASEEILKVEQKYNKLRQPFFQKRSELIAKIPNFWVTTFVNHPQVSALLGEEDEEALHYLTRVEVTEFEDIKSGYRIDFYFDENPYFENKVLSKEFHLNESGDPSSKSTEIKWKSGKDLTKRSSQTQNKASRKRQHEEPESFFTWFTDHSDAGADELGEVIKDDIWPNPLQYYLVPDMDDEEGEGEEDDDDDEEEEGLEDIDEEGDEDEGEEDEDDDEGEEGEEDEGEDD
substance,measurement,setting,value
5[KPR]-TASP (peptide),Ka,[1],1.5e+08 M⁻¹
same,koff,[1],0.0024 s⁻¹
same,kon,[1],350000 M⁻¹ s⁻¹
same,IC50,[2],300 nM
same,Ka,[3],1.5e+08 M⁻¹
same,koff,[3],0.0024 s⁻¹
same,kon,[3],350000 M⁻¹ s⁻¹
same,"Inhibition of HIV infection (IC50), HIV-1 in CEM cells, p24 at 4 days",P95/nucleolin (human) [4],5000 nM
same,EC50,P95/nucleolin (human) [5],3500 nM
same,% of P95 recovery abolished,P95/nucleolin (human) [6],40 to 50%
5[Kψ(CH2N)PR]-TASP (peptide),% positive cells,P95/nucleolin (human) [7],100%
same,% positive cells,P95/nucleolin (human) [8],92%
same,concentration giving 100% saturation of the binding sites,P40/PHAP II (human),4 µM
same,concentration giving 100% saturation of the binding sites,P30/PHAP I (human),8 µM
same,concentration giving 100% saturation of the binding sites,P95/nucleolin (human) [9],2 µM
same,Ka,[10],9.61e+09 M⁻¹
same,Ka,[3],9.61e+09 M⁻¹
same,"IC50 of HIV entry (β-galactosidase), HeLa P4, HIV-1 Lai",P95/nucleolin (human) [4],500 nM
same,"IC50 of HIV entry (β-galactosidase), HeLa P4-C5, HIV-1 Bal",P95/nucleolin (human) [4],800 nM
same,"IC50 of HIV entry (β-galactosidase), HeLa P4-C5, HIV-1 UGO29A",P95/nucleolin (human) [4],300 nM
same,"IC50 of HIV entry (β-galactosidase), HeLa P4-C5, HIV-2 ROD",P95/nucleolin (human) [4],400 nM
same,"Inhibition of HIV infection (IC50), HIV-1 in CEM cells, p24 at 4 days",P95/nucleolin (human) [4],500 nM
same,EC50,P95/nucleolin (human) [5],150 nM
same,% positive cells,P95/nucleolin (human) [11],15%
same,% positive cells,P95/nucleolin (human) [12],8%
5[Kψ(CH2N)PR]-TASP with dehydroxyproline in place of proline (peptide),"IC50 of HIV entry (β-galactosidase), HeLa P4, HIV-1 Lai",P95/nucleolin (human) [4],100 nM
same,"IC50 of HIV entry (β-galactosidase), HeLa P4-C5, HIV-1 89.6",P95/nucleolin (human) [4],300 nM
same,"IC50 of HIV entry (β-galactosidase), HeLa P4-C5, HIV-1 Bal",P95/nucleolin (human) [4],300 nM
same,"IC50 of HIV entry (β-galactosidase), HeLa P4-C5, HIV-1 JRCSF",P95/nucleolin (human) [4],300 nM
same,"IC50 of HIV entry (β-galactosidase), HeLa P4-C5, HIV-1 Lai",P95/nucleolin (human) [4],100 nM
same,"IC50 of HIV entry (β-galactosidase), HeLa P4-C5, HIV-2 CBL",P95/nucleolin (human) [4],2000 nM
same,"IC50 of HIV entry (β-galactosidase), HeLa P4-C5, HIV-2 ROD",P95/nucleolin (human) [4],200 nM
mAb OKT4A (antibody),% positive cells,[13],24%
same,% positive cells,[14],6%
same,ELISA OD 450 nm,[15],0.2 OD 450 nm
same,inhibition of binding of HIV-1 particles to CEM cells (p24 in cell lysates),[16],75%
same,% positive cells,[17],100%
same,% positive cells,[18],9%
mAb Ta1 (antibody),% positive cells,[19],100%
same,% positive cells,[20],98%
same,% positive cells,[21],100%
same,% positive cells,[22],97%
nonglycosylated gp120 of HIV-1 SF2 (Env 2-3) (from UniProt P03378 32-509) (ligand),Ka,[1],1.6e+08 M⁻¹
same,koff,[1],0.0024 s⁻¹
same,kon,[1],380000 M⁻¹ s⁻¹
same,fold reduction of affinity against glycosylated gp120 SF2,[23],10 fold
same,Ka,[3],1.6e+08 M⁻¹
same,koff,[3],0.0024 s⁻¹
same,kon,[3],380000 M⁻¹ s⁻¹
"purified preparation of the V3 loop-BPs (P95/nucleolin, P40/PHAP II, P30/PHAP I) (from UniProt P19338 2-710; Q01105 2-277; P39687 1-249)","inhibition of HIV-1 Lai infection of CEM cells, multiple cycles, p24 at 5 days, 10 µg/ml",[24],91%
same,inhibition of single cycle HIV-1 infection of CEM cells,[24],> 80%
recombinant gp120 of HIV-1 Lai (IIIB) (from UniProt P03377 33-516) (ligand),Ka,[1],2.1e+08 M⁻¹
same,koff,[1],0.0021 s⁻¹
same,kon,[1],440000 M⁻¹ s⁻¹
same,Ka,[3],2.1e+08 M⁻¹
same,koff,[3],0.0021 s⁻¹
same,kon,[3],440000 M⁻¹ s⁻¹
same,IC50,[25],3 nM
recombinant gp120 of HIV-1 Lai (IIIB) (from UniProt P03377 33-516) (ligand; other documents disagree on this pair),Ka,recombinant soluble CD4,1.08e+09 M⁻¹
same,koff,recombinant soluble CD4,0.0545 s⁻¹
same,kon,recombinant soluble CD4,588000 M⁻¹ s⁻¹
recombinant gp120 of HIV-1 MN (from UniProt P05877 32-513) (ligand),Ka,[1],4.3e+08 M⁻¹
same,koff,[1],0.00044 s⁻¹
same,kon,[1],190000 M⁻¹ s⁻¹
same,Ka,[3],4.3e+08 M⁻¹
same,koff,[3],0.00044 s⁻¹
same,kon,[3],190000 M⁻¹ s⁻¹
recombinant gp120 of HIV-1 SF2 (from UniProt P03378 32-509) (ligand),Ka,[1],2.32e+09 M⁻¹
same,koff,[1],3e-05 s⁻¹
same,kon,[1],65000 M⁻¹ s⁻¹
same,Ka,[3],2.32e+09 M⁻¹
same,koff,[3],2.8e-05 s⁻¹
same,kon,[3],65000 M⁻¹ s⁻¹
synthetic V3 loop peptide of HIV-1 Ba-L,Ka,[26],1.5e+06 M⁻¹
synthetic V3 loop peptide of HIV-1 Lai,Ka,[26],5.1e+06 M⁻¹
same,fold affinity against the V3 loop of the macrophage-tropic isolate,[26],> 3 fold
